From the supplement of paper PMC7877785
± gives the uncertainty stated by the source.

Experiment: self-splicing fitness, log relative to wild type (ln ratio); higher = more splicing; Tetrahymena group I intron in knt gene, E. coli kanamycin selection, DiMSum; sequences stand for … in CUCUCU…GGAGGGAAAAGUUAUCAGGCAUGCACCUGGUAGCUAGUCUUUAAACCAAUAGAUUGCAUCGGUUUAAAAGGCAAGACCGUCAAAUUGCGGGAAAGGGGUCAACAGCCGUUCAGUACCAAGUCUCAGGGGAAACUUUGAGAUGGCCUUGCAAAGGGUAUGGUAAUAAGCUGACGGACAUGGUCCUAACCACGCAGCCAAGUCCUAAGUCAACAGAUCUUCUGUUGAUAUGGAUGCAGUUCACAGACUAAAUGUCGGUCGGGGAAGAUGUAUUCUUCUCAUAAGAUAUAGUCGGACCUCUCCUUAAUGGGAGCUAGCGGAUGAAGUGAUGCAACACUGGAGCCGCUGGGAACUAAUUUGUAUGCGAAAGUAUAUUGAUUAGUUUUGGAGUACUCGUGGUCG
Outline: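 DiMSum derived fitness as the error-weighted combination of fold changes across replicates, kanamycin versus no kanamycin, normalised to wild type. E. coli BL21(DE3) held the library, which randomised all eight P1ex-region intron nucleotides within the knt kanamycin-resistance gene on pET-22b(+). Six replicate transformations grew overnight at 37°C or 30°C on LB agar with or without 25 μg/mL kanamycin, also containing 100 μg/mL carbenicillin, 50 μM IPTG and 0.2% rhamnose, and pooled colonies were amplicon-sequenced on an Illumina HiSeq 2500.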

Row | Sequence | self-splicing fitness (ln) (30 °C) | self-splicing fitness (ln) (37 °C)
1 | CGCCAGCAAUAUUACGUGCA | -0.897 ± 0.056 | 0.212 ± 0.085
2 | GUUAAGCAAUAUUACGUGUA | -2.09 ± 0.098 | -0.751 ± 0.091
3 | AAGCAGCAAUAUUACGGUGC | -3.29 ± 0.15 | -1.61 ± 0.14
4 | UAGAAGCAAUAUUACGACAG | -0.764 ± 0.12 | -0.152 ± 0.14
5 | GCUUAGCAAUAUUACGAGGC |  | -1.93 ± 0.41
6 | AGCCAGCAAUAUUACGCAGA | -3.39 ± 0.18 | -2.94 ± 0.18
7 | AUAUAGCAAUAUUACGGCCC | -0.72 ± 0.15 | -0.205 ± 0.24
8 | AAAUAGCAAUAUUACGAAAA | -2.66 ± 0.35 | -1.47 ± 0.22
9 | GUAUAGCAAUAUUACGGGUU | -3.05 ± 0.29 | -2.07 ± 0.27
10 | AGGUAGCAAUAUUACGCACG | -0.782 ± 0.016 | -0.31 ± 0.035
11 | CUCUAGCAAUAUUACGGACA | -2.52 ± 0.47 | -2.66 ± 0.4
12 | ACGCAGCAAUAUUACGUCGA | -2.34 ± 0.11 | -1.34 ± 0.092
13 | GCCGAGCAAUAUUACGCUCA | -0.335 ± 0.17 | -0.829 ± 0.21
14 | UUUAAGCAAUAUUACGGGAC | -1.77 ± 0.16 | -2 ± 0.42
15 | CAGAAGCAAUAUUACGUGCU | -2.7 ± 0.17 | -1.23 ± 0.14
16 | GCUAAGCAAUAUUACGGGGC | -4.76 ± 0.38 | -2.87 ± 0.28
17 | AACUAGCAAUAUUACGGCAA | -1.01 ± 0.076 | -0.905 ± 0.09
18 | CAGAAGCAAUAUUACGAGGU | -4.11 ± 0.36 | -3 ± 0.32
19 | AAUGAGCAAUAUUACGAUUA | -2.57 ± 0.11 | -1.37 ± 0.1
20 | AUGCAGCAAUAUUACGCAGC |  | -1.91 ± 0.46
21 | CUUUAGCAAUAUUACGUCCU |  | -1.9 ± 0.31
22 | UAUGAGCAAUAUUACGAGAA | -2.28 ± 0.37 | -0.332 ± 0.24
23 | AUUGAGCAAUAUUACGAUUA | -2.36 ± 0.23 | -2.62 ± 0.36
24 | GACGAGCAAUAUUACGGCGU | -3.7 ± 0.32 | -1.9 ± 0.26
25 | CCAUAGCAAUAUUACGGAGU | -4 ± 0.29 | -2.42 ± 0.17

Row | Sequence | self-splicing fitness (ln) (30 °C) | self-splicing fitness (ln) (37 °C)
26 | GUCUAGCAAUAUUACGCACC | -1.81 ± 0.11 | -0.328 ± 0.14
27 | UGGCAGCAAUAUUACGCCAA | -1.03 ± 0.13 | -0.634 ± 0.12
28 | CUGUAGCAAUAUUACGGCUA |  | -1.51 ± 0.39
29 | UGUGAGCAAUAUUACGCGAU | -3.88 ± 0.33 | -3.57 ± 0.37
30 | CCGCAGCAAUAUUACGUUGG | -3.26 ± 0.22 | -1.52 ± 0.2
31 | UUGUAGCAAUAUUACGCCUC | -2.07 ± 0.48 | 
32 | GGCCAGCAAUAUUACGCUUC | -1.98 ± 0.15 | -0.344 ± 0.11
33 | UGCAAGCAAUAUUACGAUUC | -3.54 ± 0.32 | -1.31 ± 0.21
34 | GAAAAGCAAUAUUACGCGAU | -2.88 ± 0.28 | -2.32 ± 0.33
35 | CUGAAGCAAUAUUACGUGCG | 0.0994 ± 0.061 | -0.325 ± 0.073
36 | GCCAAGCAAUAUUACGCCUA | -0.609 ± 0.16 | -0.61 ± 0.18
37 | GUACAGCAAUAUUACGUGUG | -2.12 ± 0.087 | -1.45 ± 0.1
38 | AUAGAGCAAUAUUACGCACU | -0.797 ± 0.14 | 0.815 ± 0.14
39 | CGAGAGCAAUAUUACGGUUU | -3.15 ± 0.15 | -2.58 ± 0.21
40 | GGUAAGCAAUAUUACGUUUU | -2.02 ± 0.12 | -0.929 ± 0.14
41 | ACCUAGCAAUAUUACGAUUA | -2.05 ± 0.15 | -1.51 ± 0.12
42 | CUGGAGCAAUAUUACGCGAC | -0.944 ± 0.27 | -1.84 ± 0.36
43 | CGUAAGCAAUAUUACGGGCG | -2.87 ± 0.22 | -1.12 ± 0.14
44 | UUACAGCAAUAUUACGUAAU | -3.27 ± 0.26 | -2.32 ± 0.19
45 | UUUAAGCAAUAUUACGGGCU | -2.91 ± 0.3 | -2.18 ± 0.3
46 | UUACAGCAAUAUUACGACGU | -3.61 ± 0.31 | -3.23 ± 0.4
47 | GGAUAGCAAUAUUACGUGUC | -3.16 ± 0.28 | 
48 | GGCGAGCAAUAUUACGGCGC | -2.51 ± 0.29 | -2.52 ± 0.37
49 | UAUUAGCAAUAUUACGUGGG | -4.06 ± 0.27 | -2.44 ± 0.17
50 | UAACAGCAAUAUUACGGUAC | -3.84 ± 0.2 | -2.06 ± 0.13
